Reference: patent publication US20250368745A1 (published 2025)

T1: human IL-18BP (human, UniProt O95998 31-194)
T1 construct: UniProt printed as 095998; also called hIL-18BP
T1 sequence: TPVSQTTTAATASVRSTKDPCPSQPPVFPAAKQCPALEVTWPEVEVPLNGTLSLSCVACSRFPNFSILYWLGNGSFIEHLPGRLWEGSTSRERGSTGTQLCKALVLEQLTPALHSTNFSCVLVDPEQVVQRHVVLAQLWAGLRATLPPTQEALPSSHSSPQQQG


Molecular target: T1, human IL-18BP
Assay: BLI, apparent KD

Row | Binder | Kd
1 | SA302a HC-D33R (antibody, V domains shown) VH: QVQLQESGPGLVKPSQTLSLTCTVSGYSITSRYNAHWIRQPPGKGLEWIGYIHYSGSTNYNPSLKSRVTISRDTSKNQFSLKLSSVTAADTAVYYCARNYGSIYVNYFDYWGQGTLVTVSS VL: EIVLTQSPATLSLSPGERATLSCSASSSVSYMYWYQQKPGQAPRPLIYRTSNLASGIPARFSGSGSGTDFTLTISSLEPEDFAVYYCQQYHSYPTFGGGTKVEIK | 2.24 nM
2 | SA302a HC-Y33aM (antibody, V domains shown) VH: QVQLQESGPGLVKPSQTLSLTCTVSGYSITSDMNAHWIRQPPGKGLEWIGYIHYSGSTNYNPSLKSRVTISRDTSKNQFSLKLSSVTAADTAVYYCARNYGSIYVNYFDYWGQGTLVTVSS VL: EIVLTQSPATLSLSPGERATLSCSASSSVSYMYWYQQKPGQAPRPLIYRTSNLASGIPARFSGSGSGTDFTLTISSLEPEDFAVYYCQQYHSYPTFGGGTKVEIK | 3.05 nM
3 | SA302a HC-Y33aV (antibody, V domains shown) VH: QVQLQESGPGLVKPSQTLSLTCTVSGYSITSDVNAHWIRQPPGKGLEWIGYIHYSGSTNYNPSLKSRVTISRDTSKNQFSLKLSSVTAADTAVYYCARNYGSIYVNYFDYWGQGTLVTVSS VL: EIVLTQSPATLSLSPGERATLSCSASSSVSYMYWYQQKPGQAPRPLIYRTSNLASGIPARFSGSGSGTDFTLTISSLEPEDFAVYYCQQYHSYPTFGGGTKVEIK | 4.49 nM
4 | SA302a HC-Y33aH (antibody, V domains shown) VH: QVQLQESGPGLVKPSQTLSLTCTVSGYSITSDHNAHWIRQPPGKGLEWIGYIHYSGSTNYNPSLKSRVTISRDTSKNQFSLKLSSVTAADTAVYYCARNYGSIYVNYFDYWGQGTLVTVSS VL: EIVLTQSPATLSLSPGERATLSCSASSSVSYMYWYQQKPGQAPRPLIYRTSNLASGIPARFSGSGSGTDFTLTISSLEPEDFAVYYCQQYHSYPTFGGGTKVEIK | 4.11 nM
5 | SA302a HC-N33bH (antibody, V domains shown) VH: QVQLQESGPGLVKPSQTLSLTCTVSGYSITSDYHAHWIRQPPGKGLEWIGYIHYSGSTNYNPSLKSRVTISRDTSKNQFSLKLSSVTAADTAVYYCARNYGSIYVNYFDYWGQGTLVTVSS VL: EIVLTQSPATLSLSPGERATLSCSASSSVSYMYWYQQKPGQAPRPLIYRTSNLASGIPARFSGSGSGTDFTLTISSLEPEDFAVYYCQQYHSYPTFGGGTKVEIK | 2.91 nM
6 | SA302a HC-N33bY (antibody, V domains shown) VH: QVQLQESGPGLVKPSQTLSLTCTVSGYSITSDYYAHWIRQPPGKGLEWIGYIHYSGSTNYNPSLKSRVTISRDTSKNQFSLKLSSVTAADTAVYYCARNYGSIYVNYFDYWGQGTLVTVSS VL: EIVLTQSPATLSLSPGERATLSCSASSSVSYMYWYQQKPGQAPRPLIYRTSNLASGIPARFSGSGSGTDFTLTISSLEPEDFAVYYCQQYHSYPTFGGGTKVEIK | 6.15 nM
7 | SA302a HC-N33bD (antibody, V domains shown) VH: QVQLQESGPGLVKPSQTLSLTCTVSGYSITSDYDAHWIRQPPGKGLEWIGYIHYSGSTNYNPSLKSRVTISRDTSKNQFSLKLSSVTAADTAVYYCARNYGSIYVNYFDYWGQGTLVTVSS VL: EIVLTQSPATLSLSPGERATLSCSASSSVSYMYWYQQKPGQAPRPLIYRTSNLASGIPARFSGSGSGTDFTLTISSLEPEDFAVYYCQQYHSYPTFGGGTKVEIK | 1.03 nM
8 | SA302a HC-N33bG (antibody, V domains shown) VH: QVQLQESGPGLVKPSQTLSLTCTVSGYSITSDYGAHWIRQPPGKGLEWIGYIHYSGSTNYNPSLKSRVTISRDTSKNQFSLKLSSVTAADTAVYYCARNYGSIYVNYFDYWGQGTLVTVSS VL: EIVLTQSPATLSLSPGERATLSCSASSSVSYMYWYQQKPGQAPRPLIYRTSNLASGIPARFSGSGSGTDFTLTISSLEPEDFAVYYCQQYHSYPTFGGGTKVEIK | 2.21 nM
9 | SA302a HC-Y33aE (antibody, V domains shown) VH: QVQLQESGPGLVKPSQTLSLTCTVSGYSITSDENAHWIRQPPGKGLEWIGYIHYSGSTNYNPSLKSRVTISRDTSKNQFSLKLSSVTAADTAVYYCARNYGSIYVNYFDYWGQGTLVTVSS VL: EIVLTQSPATLSLSPGERATLSCSASSSVSYMYWYQQKPGQAPRPLIYRTSNLASGIPARFSGSGSGTDFTLTISSLEPEDFAVYYCQQYHSYPTFGGGTKVEIK | 8.65 nM
10 | SA302a HC-Y33aL (antibody, V domains shown) VH: QVQLQESGPGLVKPSQTLSLTCTVSGYSITSDLNAHWIRQPPGKGLEWIGYIHYSGSTNYNPSLKSRVTISRDTSKNQFSLKLSSVTAADTAVYYCARNYGSIYVNYFDYWGQGTLVTVSS VL: EIVLTQSPATLSLSPGERATLSCSASSSVSYMYWYQQKPGQAPRPLIYRTSNLASGIPARFSGSGSGTDFTLTISSLEPEDFAVYYCQQYHSYPTFGGGTKVEIK | 2.36 nM
11 | SA302a HC-Y33aR (antibody, V domains shown) VH: QVQLQESGPGLVKPSQTLSLTCTVSGYSITSDRNAHWIRQPPGKGLEWIGYIHYSGSTNYNPSLKSRVTISRDTSKNQFSLKLSSVTAADTAVYYCARNYGSIYVNYFDYWGQGTLVTVSS VL: EIVLTQSPATLSLSPGERATLSCSASSSVSYMYWYQQKPGQAPRPLIYRTSNLASGIPARFSGSGSGTDFTLTISSLEPEDFAVYYCQQYHSYPTFGGGTKVEIK | 8.72 nM
12 | SA302a HC-N33bF (antibody, V domains shown) VH: QVQLQESGPGLVKPSQTLSLTCTVSGYSITSDYFAHWIRQPPGKGLEWIGYIHYSGSTNYNPSLKSRVTISRDTSKNQFSLKLSSVTAADTAVYYCARNYGSIYVNYFDYWGQGTLVTVSS VL: EIVLTQSPATLSLSPGERATLSCSASSSVSYMYWYQQKPGQAPRPLIYRTSNLASGIPARFSGSGSGTDFTLTISSLEPEDFAVYYCQQYHSYPTFGGGTKVEIK | 5.24 nM
13 | SA302a HC-N33bR (antibody, V domains shown) VH: QVQLQESGPGLVKPSQTLSLTCTVSGYSITSDYRAHWIRQPPGKGLEWIGYIHYSGSTNYNPSLKSRVTISRDTSKNQFSLKLSSVTAADTAVYYCARNYGSIYVNYFDYWGQGTLVTVSS VL: EIVLTQSPATLSLSPGERATLSCSASSSVSYMYWYQQKPGQAPRPLIYRTSNLASGIPARFSGSGSGTDFTLTISSLEPEDFAVYYCQQYHSYPTFGGGTKVEIK | 2.23 nM
14 | SA302a HC-Y33aD (antibody, V domains shown) VH: QVQLQESGPGLVKPSQTLSLTCTVSGYSITSDDNAHWIRQPPGKGLEWIGYIHYSGSTNYNPSLKSRVTISRDTSKNQFSLKLSSVTAADTAVYYCARNYGSIYVNYFDYWGQGTLVTVSS VL: EIVLTQSPATLSLSPGERATLSCSASSSVSYMYWYQQKPGQAPRPLIYRTSNLASGIPARFSGSGSGTDFTLTISSLEPEDFAVYYCQQYHSYPTFGGGTKVEIK | 10.5 nM
15 | SA302a HC-Y33aS (antibody, V domains shown) VH: QVQLQESGPGLVKPSQTLSLTCTVSGYSITSDSNAHWIRQPPGKGLEWIGYIHYSGSTNYNPSLKSRVTISRDTSKNQFSLKLSSVTAADTAVYYCARNYGSIYVNYFDYWGQGTLVTVSS VL: EIVLTQSPATLSLSPGERATLSCSASSSVSYMYWYQQKPGQAPRPLIYRTSNLASGIPARFSGSGSGTDFTLTISSLEPEDFAVYYCQQYHSYPTFGGGTKVEIK | 4.38 nM
16 | SA302a HC-Y33aN (antibody, V domains shown) VH: QVQLQESGPGLVKPSQTLSLTCTVSGYSITSDNNAHWIRQPPGKGLEWIGYIHYSGSTNYNPSLKSRVTISRDTSKNQFSLKLSSVTAADTAVYYCARNYGSIYVNYFDYWGQGTLVTVSS VL: EIVLTQSPATLSLSPGERATLSCSASSSVSYMYWYQQKPGQAPRPLIYRTSNLASGIPARFSGSGSGTDFTLTISSLEPEDFAVYYCQQYHSYPTFGGGTKVEIK | 5.92 nM
